Results taken from PMC7544229, “Periphilin self-association underpins epigenetic silencing by the HUSH complex” (Nucleic Acids Research, 2020).

What was measured:
[1] = biological target: the molecule itself; test: crystal structure; Periphilin 292–367 with TASOR 1014–1095; sitting drop, 18°C, 0.1 M citrate pH 4.5, 1 M ammonium sulfate; SAD phasing with Br; refined at 2.5 Å
[2] = biological target: T1, TASOR fragment (residues 1014–1095) (human, UniProt Q9UK61-1 1014-1095); test: SEC-MALS; minimal Periphilin-TASOR core complex; Superdex 200 10/300 in PBS, 293 K, 0.5 ml/min; conditions: both partners purified
T1 construct: codon-optimized synthetic gene; untagged; Residues 1055–1071 are disordered in the crystal structure; also called untagged TASOR fragment; minimal core TASOR; source: E. coli BL21 (DE3), co-expressed with His6-Periphilin fragments from pRSF-Duet, co-purified with Periphilin
T1 sequence (looked up): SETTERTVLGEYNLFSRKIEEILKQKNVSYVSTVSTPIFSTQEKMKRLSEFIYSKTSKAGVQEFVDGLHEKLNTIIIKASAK

[3] = biological target: T1, TASOR fragment (residues 1014–1095); test: native MS; non-denaturing mass spectrometry of the His6-Periphilin 285–374 / TASOR 1014–1095 complex; conditions not shown; conditions: both partners purified

B1: Periphilin fragment (residues 292–367) (domain or fragment, human, UniProt Q8NEY8-2 292-367, looked up)
chain: SQLTTRSKAIASKTKEIEQVYRQDCETFGMVVKMLIEKDPSLEKSIQFALRQNLHEIGERCVEELKHFIAEYDTST
notes: codon-optimized synthetic gene; preceded by a His6 tag and a TEV site (ENLYFQG), digested with TEV protease; Two copies of this chain form a homodimer in the 2:1 complex with TASOR; A residue of the TEV site (G) may remain at the N-terminus after cleavage; not shown: His6, N-terminal, cleaved
[1]
  binding result: binds
[2]
  stoichiometry N: 2 Periphilin per TASOR

B2: His6-tagged Periphilin residues 285–374 (domain or fragment, human, UniProt Q8NEY8-2 285-374, looked up)
chain: GIELFEDSQLTTRSKAIASKTKEIEQVYRQDCETFGMVVKMLIEKDPSLEKSIQFALRQNLHEIGERCVEELKHFIAEYDTSTQDFGEPF
notes: codon-optimized synthetic gene; Construct used for NMR and native mass spectrometry of the Periphilin-TASOR complex; not shown: His6, N-terminal, kept
[3]
  stoichiometry N: 2 Periphilin per TASOR
